Results: paper PMC11143218, “Evolved histone tail regulates 53BP1 recruitment at damaged chromatin” (Nature Communications, 2024)
Non-standard residues stand in square brackets, D forms with d. No end group written: not given here. *: point of attachment. Biotin = O=C1N[C@H]2[C@H](CS[C@H]2CCCCC(=O)*)N1; pS = N[C@@H](COP(=O)(O)O)C(=O)O

Target: T1, MBP-53BP1 IRIF formation fragment a.a. 1220–1639 (human, UniProt Q12888 1220-1639)
T1 construct: 53BP1, minimal region for IRIF formation, a.a; also called in vitro purified 53BP1 a.a; source: E. coli BL21, purified (amylose resin, maltose elution)
T1 sequence (Q12888 1220-1639): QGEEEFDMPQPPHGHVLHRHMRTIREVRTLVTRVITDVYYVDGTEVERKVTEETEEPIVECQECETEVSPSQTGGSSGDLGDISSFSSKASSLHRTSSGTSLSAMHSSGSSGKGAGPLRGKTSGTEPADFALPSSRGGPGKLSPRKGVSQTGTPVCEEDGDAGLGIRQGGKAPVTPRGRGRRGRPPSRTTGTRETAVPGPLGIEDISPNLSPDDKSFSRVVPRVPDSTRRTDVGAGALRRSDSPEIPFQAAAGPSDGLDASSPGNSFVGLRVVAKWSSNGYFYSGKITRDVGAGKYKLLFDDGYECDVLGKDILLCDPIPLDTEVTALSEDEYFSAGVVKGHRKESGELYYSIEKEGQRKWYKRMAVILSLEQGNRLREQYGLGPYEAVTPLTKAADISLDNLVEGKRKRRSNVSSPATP
Test: pull-down; in vitro: MBP-purified protein incubated with 10.5 μg biotinylated peptide and 10 μL streptavidin beads, 1 h at 4 °C; washed three times with NETN; western blot
Conditions: both partners purified

- binding result: binds
B1: biotinylated phosphorylated S139 H2AX C-terminal tail peptide (peptide)
peptide: Biotin-TSATVGPKAPSGGKKATQA[pS]QEY
notes: also called 23-amino acid phosphorylated H2AX C-terminal tail peptide; γH2AX C-terminal tail; source: synthetic peptide, bought: genscript
